# Test results as given in PMC9723635.
# Experiments:
# [1] = tested on: RBPMS-A T/A; experiment: EMSA; conditions: apparent Kd, Hill fit; tRNA and heparin present; EMSA: 50 mM HEPES pH 7.2-7.9, 15 mM MgCl2, 25% glycerol, 5 mM DTT, 45 mM KCl, 5 ug tRNA, 20 fmol RNA, 25 min at 30 C, then 5 ug heparin 5 min at 30 C; 4% …
# [2] = tested on: RBPMS-A T/E; experiment: EMSA; conditions: apparent Kd, Hill fit; tRNA and heparin present; EMSA: 50 mM HEPES pH 7.2-7.9, 15 mM MgCl2, 25% glycerol, 5 mM DTT, 45 mM KCl, 5 ug tRNA, 20 fmol RNA, 25 min at 30 C, then 5 ug heparin 5 min at 30 C; 4% …
# [3] = tested on: RBPMS-A T/E; experiment: UV crosslinking; conditions: 4 uM protein, with 20% HeLa nuclear extract, EMSA: 50 mM HEPES pH 7.2-7.9, 15 mM MgCl2, 25% glycerol, 5 mM DTT, 45 mM KCl, 5 ug tRNA, 20 fmol RNA, 25 min at 30 C, then 5 ug heparin 5 min at 30 C
Substance,Kd [1] [nM],Kd [2] [nM],binding signal [3]
Tpm1 exon 3 upstream intron EMSA RNA (three tandem CAC motifs),268,756,–
Tpm1 UV-crosslinking RNA,–,–,7.8 % of WT
